Reference: the nanobody polyreactivity screen of Harvey et al. (2022)

Experiment: yeast display, Sf9 membrane polyspecificity reagent, FACS + sequencing; frameworks hold sequencing errors
In short: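 Synthetic nanobody libraries on Saccharomyces cerevisiae BJ5465 were galactose-induced for 36–48 hours, stained 1 hour at 4 °C with 10% biotinylated, detergent-solubilized Sf9 membrane reagent and enriched on streptavidin microbeads. FACS then separated cells into low and high (top ~1%) gates by anti-HA (expression) and streptavidin (reagent binding) fluorescence. Genes were colony-PCR amplified, MiSeq 2 × 250 sequenced and CDR-length filtered. A clone's polyreactivity label is that of its gate of origin.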

QVQLVESGGGLVQAGGSLRLSCAASGSIFNINVMGWYRQAPGKEREMVAAINSGTSTYYADSVKGRFTISRDNAKNTVYLQMNSLKPEDTAVYYCAARNLFTGRRLFYYWGQGTQVTVSS
polyreactivity (PSR sort gate): low polyreactivity

QVQLVESGGGLVQAGGSLRLSCADSGNIFNYYAMGWYRQAPGKERELVAAISTSGGRTYYADSVKGRFTISRDNAKNTVYLQMNSLKPEDTAVYYCAKVNRLYTYDYWGQGTQVTVSS
polyreactivity (PSR sort gate): high polyreactivity

QVQLVESGGGLVQAGGSLRLSCAASGRIIYSNAMGWYRQAHGKERELVASISPNTGTTYYADSVKGRFTISLDNAKNTVYLQMNSLKPEDTAVYYCAARGGYYQDGLVTGEAEYGYWGQGTQVTVSS
polyreactivity (PSR sort gate): low polyreactivity

QVQLVESGGRLVQAGGSLRISCAASGSTFNGNVIVWSRQAPGKERELVAGISKSGGTTYYADSVKGRFTISRDNAKNTVYLQMNSLKPEDTAVYYCAARGRVRYYPQYDYWGQGTQVTVSS
polyreactivity (PSR sort gate): high polyreactivity

QVQHVESGGGLVHAGGSLRLSCAASGLIFRNNAMVLYRQAPGTERELDASITSDGSTNYADSVKGRFRISRDNAKNSFYLQMNSLKPEDTAVYYCAADGYTYWYYQLIPDYDYWGQGTQVTVSS
polyreactivity (PSR sort gate): low polyreactivity

QVPLVESGGGLLQAGGSLRISCAASGSIFTRNAMGWYRPAPGKERELVAAISRRGVSTYYADSVKGRFTISRDNAKNTVYLQMNSLKPEDTAVYYCTARSPMYRTTYDYWGQGTQVTVSS
polyreactivity (PSR sort gate): high polyreactivity

QVQLVESVGGLVQAGGSLRLSCAASGGTFFYNSMGWYRQAPGKEREFVAAINGGTSTNYADSVKGRFTISRDNAKNTVYLQMNSLKPEDTAVYYCAAVYRRLGRFDWYDYWGQGTQVTVSS
polyreactivity (PSR sort gate): low polyreactivity

QVQLVESGGRLVQAGGSLRLSCAASGFIFEWNAKGWYRQAPGKERELVASITFGGGNTYYADSVKGRFTISRDYAQNTDYLQMNSLKPEDTAVYYCAVDYGYWRDSIALGEFDYWGQGTQVTVSS
polyreactivity (PSR sort gate): low polyreactivity

QVQLVESGGGLVQAGGSLRLSCAASGRIFSYNAMGWYRQAPGKERELVAAITSSGSTYADSVKVRFTISRDNAKNTVYLQMNSLKPEDTAVYYCASYYNWSGHYYWGQGTQVTVSS
polyreactivity (PSR sort gate): low polyreactivity

QVQLVESGGGLVQAGGSLRLSCAASGFTFWYYAMGWYRQAPGKERELVAAITRGGSTNYADSVKGRFTISRDNAKNTVYLQMNSLKPEDTAVYYCAKRQGYPTYRRYDYWGQGTQVTVSS
polyreactivity (PSR sort gate): high polyreactivity

QVQLVESGGGLVQAGGSLRLSCAASGRIFAVNAMGWYRQAPGKERELVAAINGGGSTNYADSVKGRFTISRDNAKNTVYFQMNSLKPEDTAVYYCAADVGWRSQTRGYYWGQGTQVTVSS
polyreactivity (PSR sort gate): high polyreactivity

QVQLVESGGGLVQAGGSLRLSCAASGRIFGYYAMGWYRQAPGKERELVAAIRYSSGRTYYADSVKGRFTISRDNAKNTVYLQMNSLKPEDTAVYYCNAYSSTYFYNYDYWGQGTQVTVSS
polyreactivity (PSR sort gate): high polyreactivity

QLQLVESGGGLVQAGGSLRLSCAASGFIFADYAMGWYRQAPGKERELVAAISSNGGSTYYADSVKGRFTISRDNAKNTVYLQMNSLKPEDTAVYYCAVRHRYYKDYEFDYWGQGTQVTVSS
polyreactivity (PSR sort gate): high polyreactivity

QVQLVESGGGLVQAGGSLRLSCAASGRTFKYYAMGWYRQAPGKERELVAASTTGGSTHYADSVKGRFTISRDNAKNTVYLQMNSLKPEDTAVYYCAAGPFARYDYWGQGTQVTVSS
polyreactivity (PSR sort gate): low polyreactivity

QVQLVESGGCLVQAGGSPRLSCAASGSILTLYAMGWYRQAPGKERELVAAITSGERTNYADSVKGRFTISRDNAKNTVYLQMNSLKPEDTAVYYCATKRWWGRYDYWGQGTQVTVSS
polyreactivity (PSR sort gate): high polyreactivity

QVQLVESGGGLVQAGGSLRLSCAASGSTFGLNAMGWYRQAPGKERELVAAITRSDITNYADSVKGRFTISRDNAKNTVYLQMNSLKPEDTAVYYCNKTPDRHRRYFGYGYWGHGTQVTVSS
polyreactivity (PSR sort gate): low polyreactivity

QVQLVESGGGLVQAGGSLRLSCAASGRTFYTNAMGWYRQAPGKERELVAVISRGGTTYYADSVKGRFTISRDNEKNTVYIQMNSLKPEDTAFYYCAIQSPSGDSSSQMGSWGQGTQVTVSS
polyreactivity (PSR sort gate): low polyreactivity

QVQLVESGGGVVQAGGSLRLSCAASGSTLARYAMGWYRQSPGKERELVAAISSDGRTYYADSVKGRFTISRDNAKNTVYLQMNSLKPEDTAVYYCSAVGKPGVYQEGDYWGQGTQVTVSS
polyreactivity (PSR sort gate): high polyreactivity

QIQLVESGGGLVQAGGSLRLSCAASGSIFSKYAMGWYRQAPGKERELVAAISAGGGSTYYADSVKGRFTISRDNAKNTVYLQMNSLKPEDTAVYYCAARSRFRFDYWVQGTQVTVSS
polyreactivity (PSR sort gate): high polyreactivity

QVQLVESGGGLVQAGGSLRLSCAASGLTFYSYAMGWYRQAPGKERELVAAISKSGGSTYYADSVKGRFTISRDNAKNTVYLQMNSLKPEDTAVYYCNALTKTGTPPDYDYWGQGTQVTVSS
polyreactivity (PSR sort gate): high polyreactivity

QVQLVESGGGLVQAEGRLRLSCAASGRIFPHYAMGWYRQAPGKERELVAAISRSGVSTYYADSVKGRFTISRDIAKNTVYLQMNSLKPEDTAVYYCASRSYILGWRYDYWGQGTQVTVSS
polyreactivity (PSR sort gate): high polyreactivity

QVQLVESGGGLVQGGGSLRLSCAASGINFRSYAMGRYRQAPGKERALVAAISWSGGSTYYADSVKGRFTISRDNAKNTVYLQMNSLKPDDTAVYYCAAKVRFSYGRGYDYWGQGTQVTVSS
polyreactivity (PSR sort gate): high polyreactivity

QVQLVESGGGLVQAGGSLRLSCAASGFIFKYYAMGWYRQAPGKERELVAAITGSGGRTYYADSVKGRFTISRDNAKNTVYLQMNSLKPEDTAVYYCAADLGGNSRLDYWGQGTQVTVSS
polyreactivity (PSR sort gate): high polyreactivity

QVQLVESAGGLVQAGGSLRLSCAASGSTFGANAMGWYRQAPGKEREYVAAISRSGVRTYYADSVKGRFTISRDNAKNTVYLQMNSLKPEDTAVYYCAADGYWWTYTRYDYWGQGTQVTVSS
polyreactivity (PSR sort gate): low polyreactivity

QVQLVESGGGLVQAGGSLRLSCDASGSIFGWYAMGWYRQAPGKERELVAAITFSSVSTYYADSVKGRFTISRDNAKNTVYLLMNSLKPEDTAVYYCAAVVYYTFDYWGQGTQVTVSS
polyreactivity (PSR sort gate): low polyreactivity

QVQLVESGGGLVQAGVSLRLSCAASGSIFSKYVMGWYRQAPGKERELVAAISWSGTRTYYADSVKGRFTISRDYAKNSVYLQMNSLKPEDTAVYYCAKYIFTTGLGYWGQGTQVTVSS
polyreactivity (PSR sort gate): high polyreactivity

QVQLVESGGGLVQAGGSLRLSCAASGSIIVWNAMGWYRQAPGKERELVAAITWSGVTTYYADSVKGRFTISRDNAKNTVYLQMNSLKPEDTAVYYCAAGRTRRKFDYWGQGTQVTVSS
polyreactivity (PSR sort gate): low polyreactivity

QVQLVESGGGLVQAGGSLRLSCAASGSISAIYTMGWYRQATGKERELVAAITGSAGSTYADSVKGRFTISRDNAKNTVYLQMNSLKPEDTAVYYCNAQPGDDVKVKLDYWGQGSQVTVSS
polyreactivity (PSR sort gate): low polyreactivity

QVQLVESGGGLVQAGGSLRLSCAASGSIFYDYAMGWYRQAPGKERELVADITDDSTNYADSVKGRFTISRDNAKNTVYLQMNSLKPEDTAVYYCAVDWYWGWYWDGGVLTYYYWGQGTQVTVSS
polyreactivity (PSR sort gate): low polyreactivity

QVQLVESGGGLVQAGGSLRLSCAASGSTFIYYAMGWYRQAPGKERELVAAISGSGASTYYADSVKGRFTISRDNAKNTVYLQMNSLKPEDTAVYYCAARSYGITDYGMYSWGQGTQVTVSS
polyreactivity (PSR sort gate): high polyreactivity

QVQLVESGGGLVQAGGSLRISCAASGYTFKNNTMGWYRQAPGKERELVAAISVSGGSTYYADSVKGRFTISRDNAKKTVYLQMNSLKPEDTAVYYCTALREVPLFLVYIGGCYWGQGTQVTVSS
polyreactivity (PSR sort gate): low polyreactivity

QVQLVESGGGLVQAGGSLRLSCAASGSTFGVNAMGWYRQAPGKEREFVAAITSSSGSTYYADSVKGRFTISRDNAKNTVYLQMNSLKPEDTAVYYCNKRYIQLYDYWGQGTQVTVSS
polyreactivity (PSR sort gate): low polyreactivity

QVQLVETGGGLVQAGGSLRLSCAASGRIFYYNTMGWYRQAPGKERELVAAISSTASTTYADSVKGRFTISRDNAKNTVYLQMNSLKPEDTAVYYCAADHRYHWAYPRGYYYWGQGTQVTVSS
polyreactivity (PSR sort gate): high polyreactivity

QVQLVDTGGGLVQAGGSLRLSCAASGSTFYFNAMGWYRLAPGKERELVAAISYSGGSTYYADSVKGRFTISRDNAKNTVYFQMNSLKPEDTAVYYCNARGLKSYYPGYWFRGDDWGQGTQVTVSS
polyreactivity (PSR sort gate): high polyreactivity

QVQLVESGGGLVQAGGSLRLSCAASVSIFGYYAMGWYRPAPGKEMELVAAISSGGNTNYADSVKGRFTISRDNAKNTVYLQMISLKQEDTAVYYCATRARYKRIRYDYWGQGTQVTVSS
polyreactivity (PSR sort gate): high polyreactivity

QVQLVESGGGLVQAGGSLRLSCAASGITFDTYAMGCYIQAPGKERELVAAISKSGGSTYYADSVKGRFTISRDNAKNTVYLQMNSLKPEDTAVYYCNARYRNSGRYWDWYYYWGQGTQVTVSS
polyreactivity (PSR sort gate): high polyreactivity

QVQLVESGGGLVQAGGRLRLSCAASGRTFLRYAMGWYRQAPGKERELVAAISVSGGNTYYADSVKGRFTISRDNAKNTVYLQMNSLKPEDTAVYYCNKARLAAVFSYPYGYWGQGTQVTVSS
polyreactivity (PSR sort gate): low polyreactivity

QVQLVESGGGLVQAGGSLRLSCAASGSTFRYYAMGWYRQEPGKERELVASITRGASTNYADSVKGRFTISRDNAKNTVYIQMNSLKPEDTAVYYCAADNYWHTFGGTDLRDDYWGQGTQVTVSS
polyreactivity (PSR sort gate): low polyreactivity

QVQLVESGGGLFQAGGSLRLSCAASGRTFHANAMGWYRQAPGKERELVARINWSGTSTYYADSVKGRFTISRDNAKNTVYLQMNSLKPEDTAVYYCAAGWIRQYSSLYDYWGQGTQVTVSS
polyreactivity (PSR sort gate): high polyreactivity

QVQLVESGGGLVQAGGSLRLSCAASGSTFAVNVMGWYRQAPGKERELVATITYRDGRTYYADSVKGRFTISRDIAKYTVFLQMNSLKPEDTAVYYCAADDEYTQEAEMDSWGQGTQVTVSS
polyreactivity (PSR sort gate): low polyreactivity

QVQLVESAGRLVQEGGSLRLRSAASGSIFKYNTMGWYRQAAGKERELVAGISYGGRTYYADSVKGRFTISRDNAKNTVYLHMNSLKPEYTAVYYCAARWSYFKTTHRNNYWGQGTQVTVSS
polyreactivity (PSR sort gate): high polyreactivity

QVQLVESGGGLVQAGGSLRLSCAASGSIFRYNTMGWYRQAPGKERELVAAIRGDGSTNYADSVKGRFTISRANAKNTVYLQMNSLKPEDTAVYYCAVTLRGYRYAYDYWGQGTQVTVSS
polyreactivity (PSR sort gate): low polyreactivity

QVQLVESGGGLVQAGGSLRLSCADSGFIFPNYGMGSYRQAPGKERELVAYADSVKGRFTISRDNAKNTVYLQMNSLKPEDTAVYYCNADPPYTRWADYWHGGGYWGQGTQVTVSS
polyreactivity (PSR sort gate): low polyreactivity
